According to US12545899B2, “Luciferase enzymes for use with thermostable luciferins in bioluminescent assays” (Promega Corporation, priority 2018, dated 2026):

Assays:
[1] = Luminescence of ATG-3707 variants (second round epPCR) with CS0333; format: biochemical; settings: for Luminescence (RLU) BrightGlo / Normalized Luminescence BrightGlo: BrightGlo buffer; for Luminescence (RLU) BrightGlo / Luminescence (RLU) CellTiterGlo / Luminescence (RLU) Detection Reagent: 25° C., 3 min; for Normalized Luminescence BrightGlo / Normalized Luminescence CellTiterGlo / Normalized Luminescence Detection Reagent: normalized to ATG-3707; for Luminescence (RLU) CellTiterGlo / Normalized Luminescence CellTiterGlo: CellTiterGlo buffer; for Luminescence (RLU) Detection Reagent / Normalized Luminescence Detection Reagent: Detection Reagent buffer
Experimental: Reagent compositions included CS0333 diluted from 20 mM to 2 mM in reaction buffer with 2 mM ATP. […] Reactions were incubated at 25° C. for 3 min, and luminescence was read and then normalized to ATG-3707 activity tested in parallel.

[2] = Kinetic analysis of ATG-3707 variants with CS0333; format: biochemical
Experimental: Additionally, Table 5 (below) includes kinetic analysis of the ATG-3707 variants identified above. Reagent compositions included CS0333 serially diluted 10-fold from 1 mM to 10 fM in reaction buffer with 2 mM ATP. […] Reactions were incubated at 25° C. for 3 min, and luminescence was read and then normalized to ATG-3707 activity tested in parallel. […] Since C2157D2 was selected for improved brightness in CellTiterGlo® buffer over ATG-3707, it still had beneficial properties.

[3] = Brightness of additional luciferase enzyme variants with CS0333; format: biochemical; settings: Table 7A, 1 mM CS0333; for Fold-improvement over ATG3707, CS0333 BG: Bright-Glo buffer; for Fold-improvement over ATG3707, CS0333 DR: Detection Reagent buffer
Experimental: (§1) Additional luciferase enzyme variants were generated and evaluated for their stability and activity. To evaluate the additional luciferase enzyme variants, 0.005 mg/ml luciferase enzyme variant was mixed with 1 mM ATP+1 mM substrate in either Bright-Glo™ (BG) or Detection Reagent (DR) buffers. […] (Table 7A is colored according to their relative luminescence values within each column across a red to green color spectrum with the lowest values colored red and the highest values colored green.)

[4] = Brightness of additional luciferase enzyme variants with CS0280; format: biochemical; settings: Table 7A, 1 mM CS0280; for Fold-improvement over ATG3707, CS0280 BG: Bright-Glo buffer; for Fold-improvement over ATG3707, CS0280 DR: Detection Reagent buffer
Experimental: as §1

[5] = Differential scanning fluorimetry (DSF) analysis; format: physicochemical; set-up: key to DSF Tm: melting temperature in °C (heated 30-95 °C at 1 °C/min); settings: for DSF Tm: Table 7A
Experimental: (§2) To conduct the experiment, Sypro Orange (5000×) was diluted in water to 3× and combined with enzymes stored in 50 mM HEPES pH 7.5, 100 mM NaCl, 2 mM EDTA to a final concentration of 5×. Fluorescence was read at 60 second intervals as the reactions were heated at 1° C. per minute from 30-95° C. The change in fluorescence at each minute was calculated and plotted for each temperature in the range.
as §2, with “The luciferase enzyme variants generated were also evaluated using DSF analysis as shown in the representative results provided in Tables 7A and 7B above. To” for “To”, “the experiments,” for “the experiment,”, “in 20” for “in 50”, “7.5, 200” for “7.5, 100”, “NaCl, 1” for “NaCl, 2”

[6] = Kinetic analysis of thermostable variants with 400 fM-4 mM CS0280 (Table 12); format: biochemical; settings: 4 mM ATP
Experimental: Table 12 includes representative results of kinetic analysis of the thermostable variants with 400 fM-4 mM CS0280. This panel of enzyme variants have a combination of improved thermostability and brightness with CS0280 relative to their progenitor enzyme variants MK134 and MK137.

Molecule | Luminescence (RLU) BrightGlo [1] [RLU] | Normalized Luminescence BrightGlo [1] | Luminescence (RLU) CellTiterGlo [1] [RLU] | Normalized Luminescence CellTiterGlo [1] | Luminescence (RLU) Detection Reagent [1] [RLU] | Normalized Luminescence Detection Reagent [1] | Km ([2]; BrightGlo) [µM] | Vmax (RLU) ([2]; BrightGlo) | Km ([2]; Detection Reagent) [µM] | Vmax (RLU) ([2]; Detection Reagent) | Fold-improvement over ATG3707, CS0333 BG [3] | Fold-improvement over ATG3707, CS0333 DR [3] | Fold-improvement over ATG3707, CS0280 BG [4] | Fold-improvement over ATG3707, CS0280 DR [4] | DSF Tm [5] | DSF Tm (° C.) ([5]; Table 12) [°C] | Km ([6]; BrightGlo Buffer) [µM] | Vmax (RLU) ([6]; BrightGlo Buffer) | Km ([6]; Detection Reagent Buffer) [µM] | Vmax (RLU) ([6]; Detection Reagent Buffer)
C2158A3: SEQ ID NO: 45; H244W+T344A+I396K+S193A+N228D+L305F+S306P+I109V+Q487R (protein) MADKNILYGPEPFYPLEDGTAGEQMFDALSRYAAIPGCIALTNAHTKENVLYEEFLKLSCRLAESFKKYGLKQNDTIAVCSENSLQFFLPVIASLYLGIIVAPVNDKYVERELIHSLGIVKPRIVFCSKNTFQKVLNVKSKLKSIETIIILDLNEDLGGYQCLNNFISQNSDSNLDVKKFKPYSFNRDDQVAAIMFSSGTTGLPKGVMLTHKNIVARFSIAKDPTFGDAINPTSAILTVIPFHWGFGMMTTLGYFTCGFRVVLMHTFEEKLFLQSLQDYKVESTLLVPTLMAFLAKSALVEKYDFPHLKEIASGGAPLSKEIGEMVKKRFKLNFVRQGYGLTEATSAVLITPKGDAKPGSTGKIVPLHAVKVVDPTTGKILGPNEPGELYFKGPMKMKGYYNNEEATKAIIDNDGWLRSGDIAYYDNDGHFYIVDRLKSLIKYKGYQVAPAEIEGILLQHPYIVDAGVTGIPDEAAGELPAAGVVVRTGKYLNEQIVQDYVASQVSTAKWLRGGVKFLDEIPKGSTGKIDRKVLRQMLEKHTNGHHHHHHHH | 3392960 | 0.87 | 1027180 | 1.59 | 6034440 | 1.17 | 5.15 | 4,009,543 RLU | 101 | 3,944,016 RLU | 0.92 | 1.15 | 1.30 | 1.49 | 61 | – | – | – | – | –
C2261D1: SEQ ID NO: 52; H244W+T344A+I396K+S193A+N228D+L305F+S306P+I109V+K121Q+V261A+V287I (protein) MADKNILYGPEPFYPLEDGTAGEQMFDALSRYAAIPGCIALTNAHTKENVLYEEFLKLSCRLAESFKKYGLKQNDTIAVCSENSLQFFLPVIASLYLGIIVAPVNDKYVERELIHSLGIVQPRIVFCSKNTFQKVLNVKSKLKSIETIIILDLNEDLGGYQCLNNFISQNSDSNLDVKKFKPYSFNRDDQVAAIMFSSGTTGLPKGVMLTHKNIVARFSIAKDPTFGDAINPTSAILTVIPFHWGFGMMTTLGYFTCGFRAVLMHTFEEKLFLQSLQDYKVESTLLIPTLMAFLAKSALVEKYDFPHLKEIASGGAPLSKEIGEMVKKRFKLNFVRQGYGLTEATSAVLITPKGDAKPGSTGKIVPLHAVKVVDPTTGKILGPNEPGELYFKGPMKMKGYYNNEEATKAIIDNDGWLRSGDIAYYDNDGHFYIVDRLKSLIKYKGYQVAPAEIEGILLQHPYIVDAGVTGIPDEAAGELPAAGVVVQTGKYLNEQIVQDYVASQVSTAKWLRGGVKFLDEIPKGSTGKIDRKVLRQMLEKHTNGHHHHHHHH | 3436380 | 0.88 | 841889 | 1.31 | 4820920 | 0.93 | 5.92 | 4,702,332 RLU | 79.8 | 4,103,451 RLU | 1.27 | 1.24 | 2.02 | 2.41 | 54 | – | – | – | – | –
C2240E2: SEQ ID NO: 40; H244W+T344A+I396K+S193A+N228D+L305F+S306P+I109V+I230F+V335G+I410M (protein) MADKNILYGPEPFYPLEDGTAGEQMFDALSRYAAIPGCIALTNAHTKENVLYEEFLKLSCRLAESFKKYGLKQNDTIAVCSENSLQFFLPVIASLYLGIIVAPVNDKYVERELIHSLGIVKPRIVFCSKNTFQKVLNVKSKLKSIETIIILDLNEDLGGYQCLNNFISQNSDSNLDVKKFKPYSFNRDDQVAAIMFSSGTTGLPKGVMLTHKNIVARFSIAKDPTFGDAFNPTSAILTVIPFHWGFGMMTTLGYFTCGFRVVLMHTFEEKLFLQSLQDYKVESTLLVPTLMAFLAKSALVEKYDFPHLKEIASGGAPLSKEIGEMVKKRFKLNFGRQGYGLTEATSAVLITPKGDAKPGSTGKIVPLHAVKVVDPTTGKILGPNEPGELYFKGPMKMKGYYNNEEATKAMIDNDGWLRSGDIAYYDNDGHFYIVDRLKSLIKYKGYQVAPAEIEGILLQHPYIVDAGVTGIPDEAAGELPAAGVVVQTGKYLNEQIVQDYVASQVSTAKWLRGGVKFLDEIPKGSTGKIDRKVLRQMLEKHTNGHHHHHHHH | 3202900 | 0.82 | 976519 | 1.51 | 6978270 | 1.35 | 3.97 | 5,559,638 RLU | 88.7 | 5,831,602 RLU | 1.26 | 1.21 | 1.24 | 1.39 | 49 | – | – | – | – | –
C2261D9: SEQ ID NO: 41; H244W+T344A+I396K+S193A+N228D+L305F+S306P+I109V+C38R+Y108F+T376I (protein) MADKNILYGPEPFYPLEDGTAGEQMFDALSRYAAIPGRIALTNAHTKENVLYEEFLKLSCRLAESFKKYGLKQNDTIAVCSENSLQFFLPVIASLYLGIIVAPVNDKFVERELIHSLGIVKPRIVFCSKNTFQKVLNVKSKLKSIETIIILDLNEDLGGYQCLNNFISQNSDSNLDVKKFKPYSFNRDDQVAAIMFSSGTTGLPKGVMLTHKNIVARFSIAKDPTFGDAINPTSAILTVIPFHWGFGMMTTLGYFTCGFRVVLMHTFEEKLFLQSLQDYKVESTLLVPTLMAFLAKSALVEKYDFPHLKEIASGGAPLSKEIGEMVKKRFKLNFVRQGYGLTEATSAVLITPKGDAKPGSTGKIVPLHAVKVVDPITGKILGPNEPGELYFKGPMKMKGYYNNEEATKAIIDNDGWLRSGDIAYYDNDGHFYIVDRLKSLIKYKGYQVAPAEIEGILLQHPYIVDAGVTGIPDEAAGELPAAGVVVQTGKYLNEQIVQDYVASQVSTAKWLRGGVKFLDEIPKGSTGKIDRKVLRQMLEKHTNGHHHHHHHH | 4380280 | 1.13 | 628712 | 0.98 | 6890380 | 1.34 | 7.46 | 6,903,348 RLU | 117 | 6,756,516 RLU | 1.10 | 1.43 | 1.39 | 1.89 | 61 | – | – | – | – | –
MK0141: SEQ ID NO: 108; H244W+S193A+N228D+L305F+S306P+I109V+C38R+F55I+Y108F+A316W+Y339M+T342S+V348I+T284A (protein) MADKNILYGPEPFYPLEDGTAGEQMFDALSRYAAIPGRIALTNAHTKENVLYEEILKLSCRLAESFKKYGLKQNDTIAVCSENSLQFFLPVIASLYLGIIVAPVNDKFVERELIHSLGIVKPRIVFCSKNTFQKVLNVKSKLKSIETIIILDLNEDLGGYQCLNNFISQNSDSNLDVKKFKPYSFNRDDQVAAIMFSSGTTGLPKGVMLTHKNIVARFSIAKDPTFGDAINPTSAILTVIPFHWGFGMMTTLGYFTCGFRVVLMHTFEEKLFLQSLQDYKVESALLVPTLMAFLAKSALVEKYDFPHLKEIASGGWPLSKEIGEMVKKRFKLNFVRQGMGLSETTSAILITPKGDAKPGSTGKIVPLHAVKVVDPTTGKILGPNEPGELYFKGPMIMKGYYNNEEATKAIIDNDGWLRSGDIAYYDNDGHFYIVDRLKSLIKYKGYQVAPAEIEGILLQHPYIVDAGVTGIPDEAAGELPAAGVVVQTGKYLNEQIVQDYVASQVSTAKWLRGGVKFLDEIPKGSTGKIDRKVLRQMLEKHTNGHHHHHHHH | – | – | – | – | – | – | – | – | – | – | – | – | – | – | – | 73 | 7.12 | 1,701,019 RLU | 40.6 | 89,238 RLU
